Earlier results on 1 substance are cited in article PMC1298930.

The series concerns the target PCNA2 (Sulfolobus solfataricus) (UniProt Q97Z84).
Sequence of UniProt Q97Z84 (Q97Z84 whole entry): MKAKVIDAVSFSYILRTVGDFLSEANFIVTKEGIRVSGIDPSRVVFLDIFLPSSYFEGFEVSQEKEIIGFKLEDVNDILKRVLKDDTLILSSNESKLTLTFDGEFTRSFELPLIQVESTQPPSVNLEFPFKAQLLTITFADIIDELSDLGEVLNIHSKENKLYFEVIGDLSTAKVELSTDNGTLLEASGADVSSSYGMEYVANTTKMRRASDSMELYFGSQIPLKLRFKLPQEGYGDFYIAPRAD

For PCNA1 (from UniProt P57766), the dissociation constant (Kd) (commonly the equilibrium constant for the complex coming apart) was 0.012 nM.
